Measurements as given in article PMC4993455.

Columns and labels:
[1] = target: recombinant human methionine adenosyltransferase α2 (MATα2) (human) (UniProt P31153)
[2] = target: recombinant methionine adenosyltransferase α1 (MATα1) (rat) (UniProt P13444)
Chain of recombinant methionine adenosyltransferase α1 (MATα1) (rat) (P13444 whole entry): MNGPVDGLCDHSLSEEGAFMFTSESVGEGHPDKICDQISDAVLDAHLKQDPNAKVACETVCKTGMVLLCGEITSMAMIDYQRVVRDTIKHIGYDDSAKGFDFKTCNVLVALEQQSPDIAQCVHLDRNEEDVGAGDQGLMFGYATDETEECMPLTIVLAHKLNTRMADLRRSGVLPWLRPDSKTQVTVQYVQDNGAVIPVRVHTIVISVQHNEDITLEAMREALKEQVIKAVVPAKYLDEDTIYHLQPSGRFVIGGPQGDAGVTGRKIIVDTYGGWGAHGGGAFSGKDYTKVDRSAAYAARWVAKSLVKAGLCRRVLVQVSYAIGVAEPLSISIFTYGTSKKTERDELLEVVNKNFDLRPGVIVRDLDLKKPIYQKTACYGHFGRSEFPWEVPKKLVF

Chain of recombinant PDRG1 (tag excised) (Q642A0 whole entry): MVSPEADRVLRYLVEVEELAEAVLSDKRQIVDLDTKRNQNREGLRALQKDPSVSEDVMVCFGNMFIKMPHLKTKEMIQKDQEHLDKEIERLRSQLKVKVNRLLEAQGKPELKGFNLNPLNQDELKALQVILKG
Chain of recombinant human methionine adenosyltransferase α2 (MATα2) (human) (P31153 whole entry): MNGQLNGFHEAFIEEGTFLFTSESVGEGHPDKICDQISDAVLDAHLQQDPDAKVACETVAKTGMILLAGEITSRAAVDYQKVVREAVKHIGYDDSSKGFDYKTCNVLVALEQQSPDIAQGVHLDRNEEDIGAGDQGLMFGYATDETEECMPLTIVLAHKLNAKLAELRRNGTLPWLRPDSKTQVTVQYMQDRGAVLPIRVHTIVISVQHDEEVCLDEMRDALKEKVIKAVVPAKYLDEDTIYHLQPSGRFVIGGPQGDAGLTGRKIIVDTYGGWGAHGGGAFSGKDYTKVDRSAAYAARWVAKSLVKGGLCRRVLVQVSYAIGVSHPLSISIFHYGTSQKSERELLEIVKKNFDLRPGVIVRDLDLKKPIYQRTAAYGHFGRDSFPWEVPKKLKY

recombinant PDRG1 (tag excised) (from UniProt Q642A0 1-133) (natural protein)
IC50 of PDRG1 on S-adenosylmethionine synthesis by purified recombinant MATα2 homo-oligomers (0.7 μM) [1]: 3.79 µM | reduction in AdoMet synthesis by MATα2 homo-oligomers (0.7 μM) with increasing concentrations of PDRG1 [1]: < 50% | IC50 of PDRG1 (0–5.6 μM) on S-adenosylmethionine synthesis by purified recombinant MATα1 homo-oligomers (0.7 μM) [2]: 3.34 µM | reduction in AdoMet synthesis by MATα1 homo-oligomers (0.7 μM) with increasing concentrations of PDRG1 (0–5.6 μM) [2]: < 50%
